# Laboratory results as given in patent US7833513B2, “Treatment of Alzheimer's Disease” (Rhode Island Hospital, priority 2004, dated 2010).
# Target: T1, IGF-II receptor (Homo sapiens, UniProt P11717)
# T1 construct: membrane extracts of postmortem frontal lobe tissue as the sources of receptors; from tissue; host or cells: postmortem frontal lobe tissue, homogenates pooled per Braak stage group
# Assay: Saturation binding (Scatchard) of [125I]-IGF-II to postmortem frontal lobe membrane extracts by AD Braak stage
# Design: unit not given here
# Protocol: Protein concentration was determined using the bicinchoninic acid (BCA) assay (Pierce, Rockford, Ill.). Preliminary studies determined the amounts of protein and concentrations of radiolabeled ligand required to achieve 20% specific binding.
# IGF-I binding assays required 25 μg protein per sample, and IGF-II receptor binding assays were performed with 10 μg protein. Equilibrium binding assays were used to assess growth factor binding levels in relation to AD stage severity. This was accomplished by determining net specific binding after incubating the protein samples at 4° C. overnight with a fixed amount of radioligand, in the presence or absence of excess cold ligand and then subtracting the values obtained for non-specific binding from those corresponding to the total binding. To measure total binding, individual protein samples were incubated in 100 μl reactions containing binding buffer (100 mM HEPES, pH 8.0, 118 mM NaCl, 1.2 mM MgSO4, 8.8 mM dextrose, 5 mM KCl, 1% bovine serum albumin) and 100 nCi/ml [^125I] […] To measure non-specific binding, replicate samples were prepared as indicated with the addition of 0.1 μM unlabeled (cold) ligand.
# Saturation binding assays were performed to assess top-level (maximum) binding and binding affinity in relation to AD stage severity. Samples from 8-12 brains per Braak stage group were pooled in equal proportions and used to generate binding curves. Protein concentrations of the pooled homogenates were determined with the BCA assay. Duplicate samples were incubated in 100 μl reaction volumes containing binding buffer and 0.0031 to 1 μCi/ml of [^125I] […] To measure non-specific binding, duplicate reactions were incubated with the same concentrations of radiolabeled ligand plus 0.1 μM unlabeled (cold) competitive ligand. The data were graphed and analyzed using the GraphPad Prism 4 software to calculate the Bmax, kD (dissociation constant), and their standard deviations and 95% confidence intervals.
# Reactions were performed in 1.5 ml Eppendorff tubes at 4° C. for 16 hours with gentle platform agitation. […] The samples were counted for 1 minute each in an LKB CompuGamma CS Gamma counter. Specific binding was calculated by subtracting CPM or fmol of non-specific binding, i.e., amount bound in the presence of cold ligand, from the total CPM or fmol bound (absence of unlabeled competitive ligand). After determining that the data fit a one-site rather than a two-site model, the results were analyzed using non-linear regression to calculate saturation binding (Bmax) and binding affinity (kD) with Scatchard analysis performed to measure saturation binding and binding affinity using GraphPad Prism 4 software (GraphPad Software, Inc., San Diego, Calif.).
# T1 sequence (P11717 41-2491): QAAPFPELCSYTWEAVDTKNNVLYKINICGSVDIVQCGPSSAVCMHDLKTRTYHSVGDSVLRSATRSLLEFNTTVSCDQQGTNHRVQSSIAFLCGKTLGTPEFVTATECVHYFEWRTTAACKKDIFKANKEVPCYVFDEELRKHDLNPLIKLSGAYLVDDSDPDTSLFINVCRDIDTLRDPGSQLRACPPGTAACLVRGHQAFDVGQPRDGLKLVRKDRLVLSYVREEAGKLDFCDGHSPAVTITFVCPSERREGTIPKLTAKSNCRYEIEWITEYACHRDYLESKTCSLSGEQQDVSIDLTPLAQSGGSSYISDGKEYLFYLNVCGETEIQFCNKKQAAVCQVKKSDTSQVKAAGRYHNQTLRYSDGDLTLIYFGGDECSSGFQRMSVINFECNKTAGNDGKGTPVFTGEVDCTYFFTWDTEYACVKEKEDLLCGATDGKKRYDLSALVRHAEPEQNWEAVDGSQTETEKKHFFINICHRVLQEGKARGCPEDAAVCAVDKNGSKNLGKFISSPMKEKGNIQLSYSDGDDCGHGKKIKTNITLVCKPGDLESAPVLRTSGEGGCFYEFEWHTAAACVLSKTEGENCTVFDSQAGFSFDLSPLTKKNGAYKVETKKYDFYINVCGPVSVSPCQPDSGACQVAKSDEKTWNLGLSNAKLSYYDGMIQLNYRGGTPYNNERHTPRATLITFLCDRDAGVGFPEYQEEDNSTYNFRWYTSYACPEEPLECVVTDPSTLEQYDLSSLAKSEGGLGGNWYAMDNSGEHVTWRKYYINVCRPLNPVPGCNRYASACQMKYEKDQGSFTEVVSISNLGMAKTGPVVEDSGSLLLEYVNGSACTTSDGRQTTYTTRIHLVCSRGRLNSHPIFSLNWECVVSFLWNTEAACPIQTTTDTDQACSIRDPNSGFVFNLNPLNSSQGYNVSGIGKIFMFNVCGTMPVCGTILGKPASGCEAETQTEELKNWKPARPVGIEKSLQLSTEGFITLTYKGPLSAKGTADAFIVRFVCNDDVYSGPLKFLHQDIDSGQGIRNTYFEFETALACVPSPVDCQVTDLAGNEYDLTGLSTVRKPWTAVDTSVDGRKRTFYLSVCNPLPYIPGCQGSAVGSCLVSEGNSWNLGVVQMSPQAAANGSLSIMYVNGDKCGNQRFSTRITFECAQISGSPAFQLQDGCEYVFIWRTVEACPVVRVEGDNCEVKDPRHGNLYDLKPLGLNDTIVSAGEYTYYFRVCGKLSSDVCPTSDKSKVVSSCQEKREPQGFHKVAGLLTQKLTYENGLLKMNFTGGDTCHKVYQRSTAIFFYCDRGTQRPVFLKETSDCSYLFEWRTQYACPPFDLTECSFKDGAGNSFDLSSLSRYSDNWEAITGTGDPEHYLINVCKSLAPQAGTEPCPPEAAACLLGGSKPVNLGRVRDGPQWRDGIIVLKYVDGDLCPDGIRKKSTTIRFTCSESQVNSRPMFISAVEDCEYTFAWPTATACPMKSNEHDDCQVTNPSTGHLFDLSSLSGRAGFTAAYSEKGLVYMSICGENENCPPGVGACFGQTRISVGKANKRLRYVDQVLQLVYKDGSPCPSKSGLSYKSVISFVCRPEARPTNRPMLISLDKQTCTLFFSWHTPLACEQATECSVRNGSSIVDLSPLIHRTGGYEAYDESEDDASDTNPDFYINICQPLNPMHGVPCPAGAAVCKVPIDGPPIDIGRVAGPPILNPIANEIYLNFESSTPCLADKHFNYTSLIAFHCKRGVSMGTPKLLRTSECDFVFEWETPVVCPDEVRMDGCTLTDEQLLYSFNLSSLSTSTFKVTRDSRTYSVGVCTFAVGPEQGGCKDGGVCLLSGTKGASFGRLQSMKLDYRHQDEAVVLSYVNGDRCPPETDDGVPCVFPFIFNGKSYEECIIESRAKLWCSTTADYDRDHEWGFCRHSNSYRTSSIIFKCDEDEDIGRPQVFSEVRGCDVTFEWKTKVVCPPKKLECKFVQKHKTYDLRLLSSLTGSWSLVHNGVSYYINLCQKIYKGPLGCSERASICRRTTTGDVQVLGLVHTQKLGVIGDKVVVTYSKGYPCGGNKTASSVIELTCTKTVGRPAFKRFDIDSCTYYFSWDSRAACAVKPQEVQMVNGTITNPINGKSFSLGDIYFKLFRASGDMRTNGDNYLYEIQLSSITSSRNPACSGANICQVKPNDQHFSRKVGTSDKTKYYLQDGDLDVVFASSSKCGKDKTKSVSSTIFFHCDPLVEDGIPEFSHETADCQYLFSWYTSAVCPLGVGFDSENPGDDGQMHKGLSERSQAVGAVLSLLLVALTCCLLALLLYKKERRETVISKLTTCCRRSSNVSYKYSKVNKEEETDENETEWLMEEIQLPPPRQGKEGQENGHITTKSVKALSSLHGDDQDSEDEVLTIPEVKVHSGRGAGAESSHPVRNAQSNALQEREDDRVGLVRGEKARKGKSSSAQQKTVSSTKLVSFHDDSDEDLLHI
substance,measurement,setting,value
IGF-II: [125I]-labeled IGF-II used as tracer in brain membrane binding assays,"BMAX, IGF-II binding",Braak 0-1,16.83
same,"BMAX, IGF-II binding",Braak 2-3,12.53
same,"BMAX, IGF-II binding",Braak 4-5,8.136
same,"BMAX, IGF-II binding",Braak 6,4.713
